Target: endothelial protein C receptor (EPCR), residues 16 to 210, biotinylated on the BAP tag (human) (UniProt Q9UNN8)
Test: SPR; Biacore T200; biotinylated EPCR captured on a CAP chip (150 RU); twofold dilution series of CIDRα domain or synthetic binder injected 240 s, dissociation 300 s; 20 mM HEPES pH 7.5, 150 mM NaCl, 0.005% Tween 20, 25°C; global fit to a 1:1 model

Chain of UniProt Q9UNN8 (Q9UNN8 16-210): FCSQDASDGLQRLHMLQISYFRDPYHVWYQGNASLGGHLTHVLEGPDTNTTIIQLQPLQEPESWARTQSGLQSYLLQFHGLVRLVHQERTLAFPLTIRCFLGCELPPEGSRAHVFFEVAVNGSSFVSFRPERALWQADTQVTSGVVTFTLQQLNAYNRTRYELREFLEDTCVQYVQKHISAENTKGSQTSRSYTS

HB3var03 CIDRα1.4 domain D576A K642A double mutant (domain or fragment)
Kd: 220 nM
